Experimental data as given in US7998940B2, “Aptamers to von Willebrand factor and their use as thrombotic disease therapeutics” (Archemix Corp., priority 2004, dated 2011).

Tests used:
[1] = tested on: rabbit vWF A1 domain (SEQ ID NO 6); assay: 3-point dot blot screen, rabbit vWF A1 domain; format: binding; conditions: 3-point dot blot screen, 20 nM rabbit vWF A1 domain; ratio of fraction of aptamer bound with target protein to fraction bound without protein
Method in brief: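 Rabbit vWF A1 domain binding was screened by dot blot using three conditions: no target protein, human vWF, and rabbit vWF A1 domain at 100 nM (20 nM in the screen run twice). Radiolabeled aptamer bound to nitrocellulose was quantified, and results are expressed as the ratio of bound fraction with protein to bound fraction without protein.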

[2] = tested on: full length human vWF; assay: 3-point dot blot screen, full length human vWF; format: binding; conditions: 20 nM full length human vWF, ratio of fraction of aptamer bound with target protein to fraction bound without protein
Description: When a significant positive ratio of binding of DNA in the presence of human or rabbit vWF A1 domain versus in the absence of protein was seen, the pools were cloned using the TOPO TA cloning kit (Invitrogen Cat. #45-0641, Carlsbad, Calif.) according to the manufacturer's instructions. Round 7 and 11 pool templates were cloned and sequenced (218 total sequences), producing 146 unique clones within 12 sequence families of which sequences from six families show vWF target binding activity. All unique clones were assayed twice in a 3-point dot blot screen (no protein target control, 20 nM full length human vWF (Calbiochem Cat. #681300, La Jolla, Calif.), or 20 nM rabbit vWF A1 domain. The data is presented in the third and fourth columns of Table 17 below as the ratio of the fraction of the aptamer bound to the nitrocellulose in the presence of the target protein to the fraction of aptamer bound in the absence of the target protein.

Chain of rabbit vWF A1 domain (SEQ ID NO 6) (as listed by the source): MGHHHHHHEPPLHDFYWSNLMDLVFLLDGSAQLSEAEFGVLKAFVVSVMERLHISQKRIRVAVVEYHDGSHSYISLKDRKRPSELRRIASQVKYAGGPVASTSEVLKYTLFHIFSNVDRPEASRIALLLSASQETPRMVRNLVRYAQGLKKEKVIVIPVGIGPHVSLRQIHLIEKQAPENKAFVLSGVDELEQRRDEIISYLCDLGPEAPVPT

B1: AMX238.F7: DNA SELEX 2 aptamer clone (nucleic acid)
DNA: CTACCTACGATCTGACTAGCAAGGGGATTGGCTCCGGGTCTGGCGTGCTTGGCATCTTTGGCTTACTCTCATGTAGTTCC
modifications: DNA, backbone not given here
notes: DNA SELEX 2 aptamer clone
Screen Rabbit/No Protein [1]: 1.88 | Screen- Human/No Protein [2]: 1.20

B2: AMX236.G1: DNA SELEX 2 aptamer clone (nucleic acid)
chain: CTACCTACGATCTGACTAGCCTCAGATTGACTCCGGCTGACTTGTTTTAATCTTCTGAGTGCTTACTCTCATGTAGTTCC
modifications: DNA, backbone not given here
notes: DNA SELEX 2 aptamer clone
Screen Rabbit/No Protein [1]: 1.51 | Screen- Human/No Protein [2]: 1.47

B3: AMX237.E2: DNA SELEX 2 aptamer clone (nucleic acid)
DNA: CTACCTACGATCTGACTAGCTCCAGTGTTTCATCTAATAACCGTGCGGTGCCTCCGTGAGCTTACTCTCATGTAGTTCC
modifications: DNA, backbone not given here
notes: DNA SELEX 2 aptamer clone
Screen Rabbit/No Protein [1]: 1.61 | Screen- Human/No Protein [2]: 1.61

B4: AMX237.B4: DNA SELEX 2 aptamer clone (nucleic acid)
DNA: CTACCTACGATCTGACTAGCTCCAGTGTTTCATCCAATAACCGTGCGGTGCTTCCGTGAGCTTACTCTCATGTAGTTCC
modifications: DNA, backbone not given here
notes: DNA SELEX 2 aptamer clone
Screen Rabbit/No Protein [1]: 1.38 | Screen- Human/No Protein [2]: 1.42

B5: AMX237.E9: DNA SELEX 2 aptamer clone (nucleic acid)
DNA: CTACCTACGATCTGACTAGCTCCAGTGTTTTGTCTAATAACCGTGCGGTGCCTCCGTGAGCTTACTCTCATGTAGTTCC
modifications: DNA, backbone not given here
notes: DNA SELEX 2 aptamer clone
Screen Rabbit/No Protein [1]: 2.06 | Screen- Human/No Protein [2]: 2.13

B6: AMX237.D11: DNA SELEX 2 aptamer clone (nucleic acid)
DNA: CTACCTACGATCTGACTAGCTCCAGTGTTTTATATAATAACCGTGCGGTGCCTCCGTGATGCTTACTCTCATGTAGTTCC
modifications: DNA, backbone not given here
notes: DNA SELEX 2 aptamer clone
Screen Rabbit/No Protein [1]: 1.17 | Screen- Human/No Protein [2]: 1.16

B7: AMX237.C7: DNA SELEX 2 aptamer clone (nucleic acid)
DNA: CTACCTACGATCTGACTAGCTCCAGTGTTTTATTCAATAACCGTGCGGTGCCTCCGTGATGCTTACTCTCATGTAGTTCC
modifications: DNA, backbone not given here
notes: DNA SELEX 2 aptamer clone
Screen Rabbit/No Protein [1]: 1.16 | Screen- Human/No Protein [2]: 1.15

B8: AMX238.D5: DNA SELEX 2 aptamer clone (nucleic acid)
DNA: CTACCTACGATCTGACTAGCTCCAGTGTTTTATTCAATAACCGTGCGGTGTCTCCGTGAGCTTACTCTCATGTAGTTCC
modifications: DNA, backbone not given here
notes: DNA SELEX 2 aptamer clone
Screen Rabbit/No Protein [1]: 1.40 | Screen- Human/No Protein [2]: 1.46

B9: AMX237.F6: DNA SELEX 2 aptamer clone (nucleic acid)
DNA: CTACCTACGATCTGACTAGCTCCAGTGTTTTATCTAATAACCGTGCGGTGCCTCCGTGATGCTTACTCTCATGTAGTTCC
modifications: DNA, backbone not given here
notes: DNA SELEX 2 aptamer clone
Screen Rabbit/No Protein [1]: 1.21 | Screen- Human/No Protein [2]: 1.20

B10: AMX238.D8: DNA SELEX 2 aptamer clone (nucleic acid)
DNA: CTACCTACGATCTGACTAGCTCCAGTGTTTTATCCAACAACCGTGCGGTGCCTCCGTGAGCTTACTCTCATGTAGTTCC
modifications: DNA, backbone not given here
notes: DNA SELEX 2 aptamer clone
Screen Rabbit/No Protein [1]: 1.97 | Screen- Human/No Protein [2]: 2.02

B11: AMX238.G6: DNA SELEX 2 aptamer clone (nucleic acid)
DNA: CTACCTACGATCTGACTAGCTCCAGTGTTTTATCCAATAACCGTGCGGGGCCTCCGTGATGCTTACTCTCATGTAGTTCC
modifications: DNA, backbone not given here
notes: DNA SELEX 2 aptamer clone
Screen Rabbit/No Protein [1]: 1.22 | Screen- Human/No Protein [2]: 1.25

B12: AMX236.F8: DNA SELEX 2 aptamer clone (nucleic acid)
chain: CTACCTACGATCTGACTAGCTCCAGTGTTTTATCCAATAACCGTGCGGTGCCTCCGTGATGCTTACTCTCATGTAGTTCC
modifications: DNA, backbone not given here
notes: DNA SELEX 2 aptamer clone
Screen Rabbit/No Protein [1]: 1.13 | Screen- Human/No Protein [2]: 1.14

B13: AMX238.E7: DNA SELEX 2 aptamer clone (nucleic acid)
DNA: CTACCTACGATCTGACTAGCGTGCAGTGCCTATTTTAGGCCGTGCGGTGCCTCCGTCACGCTTACTCTCATGTAGTTCC
modifications: DNA, backbone not given here
notes: DNA SELEX 2 aptamer clone
Screen Rabbit/No Protein [1]: 2.83 | Screen- Human/No Protein [2]: 3.02

B14: AMX238.F3: DNA SELEX 2 aptamer clone (nucleic acid)
DNA: CTACCTACGATCTGACTAGCGTGCAGTGCCTATTTTAGGTCGTGCGGGGCCTCCGTCACGCTTACTCTCATGTAGTTCC
modifications: DNA, backbone not given here
notes: DNA SELEX 2 aptamer clone
Screen Rabbit/No Protein [1]: 2.72 | Screen- Human/No Protein [2]: 2.83

B15: AMX237.C11: DNA SELEX 2 aptamer clone (nucleic acid)
DNA: CTACCTACGATCTGACTAGCGTGCAGTGCCTATTCTAGGCCGTGCGGTGCCTCCGTCATGCTTACTCTCATGTAGTTCC
modifications: DNA, backbone not given here
notes: DNA SELEX 2 aptamer clone
Screen Rabbit/No Protein [1]: 1.95 | Screen- Human/No Protein [2]: 2.04

B16: AMX238.F2: DNA SELEX 2 aptamer clone (nucleic acid)
DNA: CTACCTACGATCTGACTAGCATGCAGTGCCCATTCTAGGCCGTGCGGTGCCTCCGTCATGCTTACTCTCATGTAGTTCC
modifications: DNA, backbone not given here
notes: DNA SELEX 2 aptamer clone
Screen Rabbit/No Protein [1]: 2.76 | Screen- Human/No Protein [2]: 2.84

B17: AMX237.F9: DNA SELEX 2 aptamer clone (nucleic acid)
DNA: CTACCTACGATCTGACTAGCTTGGTAGCGATTCTGTGGAGCTGCGGTTTGGTCGACGTCAGCTTACTCTCATGTAGTTCC
modifications: DNA, backbone not given here
notes: DNA SELEX 2 aptamer clone
Screen Rabbit/No Protein [1]: 2.31 | Screen- Human/No Protein [2]: 2.21

B18: AMX237.F12: DNA SELEX 2 aptamer clone (nucleic acid)
DNA: CTACCTACGATCTGACTAGCTTGGTAGCGATTTTGTGGAGCTGCGGTTTGGTCGACGTCAGCTTACTCTCATGTAGTTCC
modifications: DNA, backbone not given here
notes: DNA SELEX 2 aptamer clone
Screen Rabbit/No Protein [1]: 2.08 | Screen- Human/No Protein [2]: 1.95

B19: AMX237.C9: DNA SELEX 2 aptamer clone (nucleic acid)
DNA: CTACCTACGATCTGACTAGCTTGGTAGTGACTTTGTGGAGCTGCGGTTTGGTCGACGTCAGCTTACTCTCATGTAGTTCC
modifications: DNA, backbone not given here
notes: DNA SELEX 2 aptamer clone
Screen Rabbit/No Protein [1]: 2.19 | Screen- Human/No Protein [2]: 2.05

B20: AMX237.F10: DNA SELEX 2 aptamer clone (nucleic acid)
DNA: CTACCTACGATCTGACTAGCGTGCAGTGCCCATTCCAGGCCGTGCGGTATCCTCCGTCACGCTTACTCTCATGTAGTTCC
modifications: DNA, backbone not given here
notes: DNA SELEX 2 aptamer clone
Screen Rabbit/No Protein [1]: 2.90 | Screen- Human/No Protein [2]: 2.90

B21: AMX236.H2: DNA SELEX 2 aptamer clone (nucleic acid)
chain: CTACCTACGATCTGACTAGCGTGCAGTGCCTATCCCAGGCCGTGCGGTAGCCTCCGTCACGCTTACTCTCATGTAGTTCC
modifications: DNA, backbone not given here
notes: DNA SELEX 2 aptamer clone
Screen Rabbit/No Protein [1]: 2.06 | Screen- Human/No Protein [2]: 2.12

B22: AMX237.C5: DNA SELEX 2 aptamer clone (nucleic acid)
DNA: CTACCTACGATCTGACTAGCGTGCAGTGCCTATCTCAGGCCGTGCGGTATCCTCCGTCACGCTTACTCTCATGTAGTTCC
modifications: DNA, backbone not given here
notes: DNA SELEX 2 aptamer clone
Screen Rabbit/No Protein [1]: 2.36 | Screen- Human/No Protein [2]: 2.55

B23: AMX236.B8: DNA SELEX 2 aptamer clone (nucleic acid)
chain: CTACCTACGATCTGACTAGCTTGGTAGCGACTCTGTGGAGCTGCGGTCTGGTCGACGTCAGCTTACTCTCATGTAGTTCC
modifications: DNA, backbone not given here
notes: DNA SELEX 2 aptamer clone
Screen Rabbit/No Protein [1]: 1.88 | Screen- Human/No Protein [2]: 1.66
